This is an account of results in publication doi:10.1101/2020.04.15.042515 (bioRxiv, 2020).

This assay addresses T1, Smith-Magenis syndrome chromosome region, candidate 8 (SMCR8), wild type (human, UniProt Q8TEV9 1-937).
T1 sequence: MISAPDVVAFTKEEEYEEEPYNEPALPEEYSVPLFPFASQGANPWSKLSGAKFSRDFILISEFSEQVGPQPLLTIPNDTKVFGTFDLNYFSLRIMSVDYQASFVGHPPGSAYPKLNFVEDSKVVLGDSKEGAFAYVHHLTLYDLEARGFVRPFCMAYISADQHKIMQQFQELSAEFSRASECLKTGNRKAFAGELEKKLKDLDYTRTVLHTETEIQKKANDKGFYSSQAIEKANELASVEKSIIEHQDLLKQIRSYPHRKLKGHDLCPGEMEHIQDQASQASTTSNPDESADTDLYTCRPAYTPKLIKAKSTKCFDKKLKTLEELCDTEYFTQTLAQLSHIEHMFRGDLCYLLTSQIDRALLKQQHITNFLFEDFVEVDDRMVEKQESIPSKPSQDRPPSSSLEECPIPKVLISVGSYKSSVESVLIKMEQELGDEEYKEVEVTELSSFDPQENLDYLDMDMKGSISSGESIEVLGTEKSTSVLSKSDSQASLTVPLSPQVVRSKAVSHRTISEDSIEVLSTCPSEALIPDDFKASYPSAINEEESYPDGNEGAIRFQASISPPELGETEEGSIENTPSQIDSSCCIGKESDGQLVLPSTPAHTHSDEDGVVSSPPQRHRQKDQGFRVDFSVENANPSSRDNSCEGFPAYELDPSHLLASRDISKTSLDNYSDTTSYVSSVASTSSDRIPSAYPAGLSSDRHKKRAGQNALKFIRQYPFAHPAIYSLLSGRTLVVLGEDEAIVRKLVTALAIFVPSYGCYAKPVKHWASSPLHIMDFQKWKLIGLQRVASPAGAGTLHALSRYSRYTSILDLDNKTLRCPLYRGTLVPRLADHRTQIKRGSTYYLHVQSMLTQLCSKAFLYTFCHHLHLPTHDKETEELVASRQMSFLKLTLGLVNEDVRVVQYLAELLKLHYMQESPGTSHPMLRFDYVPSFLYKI
Nature of the assay: cryo-EM structure.

B1: C9orf72, wild type, GST tag removed by TEV (in purified SCARF and L-SCARF) (natural protein)
chain: MSTLCPPPSPAVAKTEIALSGKSPLLAATFAYWDNILGPRVRHIWAPKTEQVLLSDGEITFLANHTLNGEILRNAESGAIDVKFFVLSEKGVIIVSLIFDGNWNGDRSTYGLSIILPQTELSFYLPLHRVCVDRLTHIIRKGRIWMHKERQENVQKIILEGTERMEDQGQSIIPMLTGEVIPVMELLSSMKSHSVPEEIDIADTVLNDDDIGDSCHEGFLLNAISSHLQTCGCSVVVGSSAEKVNKIVRTLCLFLTPAERKCSRLCEAESSFKYESGLFVQGLLKDSTGSFVLPFRQVMYAPYPTTHIDVDVNTVKQMPPCHEHIYNQRRYMRSELTAFWRATSEEDMAQDTIIYTDESFTPDLNIFQDVLHRDTLVKAFLDQVFQLKPGLSLRSTFLAQFLLVLHRKALTLIKYIEDDTQKGKKPFKSLRNLKIDLDLTAEGDLNIIMALAEKIKPGLHSFIFGRPFYTSVQERDVLMTF
As to B1, the binding result is “binds”.

B2: WD repeat-containing protein 41 (WDR41), wild type, without a tag (natural protein)
chain: MLRWLIGGGREPQGLAEKSPLQTIGEEQTQNPYTELLVLKAHHDIVRFLVQLDDYRFASAGDDGIVVVWNAQTGEKLLELNGHTQKITAIITFPSLESCEEKNQLILTASADRTVIVWDGDTTRQVQRISCFQSTVKCLTVLQRLDVWLSGGNDLCVWNRKLDLLCKTSHLSDTGISALVEIPKNCVVAAVGKELIIFRLVAPTEGSLEWDILEVKRLLDHQDNILSLINVNDLSFVTGSHVGELIIWDALDWTMQAYERNFWDPSPQLDTQQEIKLCQKSNDISIHHFTCDEENVFAAVGRGLYVYSLQMKRVIACQKTAHDSNVLHVARLPNRQLISCSEDGSVRIWELREKQQLAAEPVPTGFFNMWGFGRVSKQASQPVKKQQENATSCSLELIGDLIGHSSSVEMFLYFEDHGLVTCSADHLIILWKNGERESGLRSLRLFQKLEENGDLYLAV
Turning to B2, the binding result is on record as “binds”.
